Assay results as given in US20230137562A1, “TAU AGGREGATION INHIBITORS” (priority 2017, published 2023).
Several values for one entry are separate records, joined by “and”; a condition that tells them apart may be missing. Equal values may be shown once. Square brackets hold non-standard residues; d marks the D form. Ends that are not written are not given here. NMeI = CC[C@H](C)[C@H](NC)C(=O)O; hArg = N=C(N)NCCCC[C@H](N)C(=O)O; Orn = NCCC[C@H](N)C(=O)O

T1: Ac-VQIINK-NH2
T1 peptide: Ac-VQIINK-NH2


Tests used:
[1] = target: His-Tau40P301L Tau (UniProt P10636-8 1-441); assay: cell-based or functional assay
Chain of His-Tau40P301L Tau (P10636 other isoform, or with tags, fused parts or gaps limits assumed): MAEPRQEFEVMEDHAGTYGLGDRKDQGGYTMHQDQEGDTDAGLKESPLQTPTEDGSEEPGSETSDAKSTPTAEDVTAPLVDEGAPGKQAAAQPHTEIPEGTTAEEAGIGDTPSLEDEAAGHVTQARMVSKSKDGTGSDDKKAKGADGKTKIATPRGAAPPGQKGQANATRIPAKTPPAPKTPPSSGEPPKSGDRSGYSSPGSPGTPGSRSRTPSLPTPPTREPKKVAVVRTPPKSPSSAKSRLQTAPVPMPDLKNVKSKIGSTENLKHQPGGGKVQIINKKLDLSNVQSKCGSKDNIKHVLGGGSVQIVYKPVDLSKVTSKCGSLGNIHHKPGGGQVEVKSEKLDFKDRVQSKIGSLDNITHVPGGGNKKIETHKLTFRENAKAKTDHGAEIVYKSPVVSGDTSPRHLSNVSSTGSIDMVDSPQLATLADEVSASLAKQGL

[2] = target: T1, Ac-VQIINK-NH2; assay: cell-based or functional assay

| Binder | IC50 (µM), Tau40 assay (ThT) [1] | IC50 (µM), VQIINK Inhibition (ThT) [2] |
| --- | --- | --- |
| WRLRLRW | 0.23 µM | 2.22 µM |
| RIRIWIW | 0.84 µM and 1.38 µM | 2.38 µM |
| WKVQVRLW | 2.4 µM and 2.31 µM | 1.35 µM |
| WIRLYWRW | 2.42 µM and 2.38 µM | 1.86 µM |
| WIRYWIRW | 2.42 µM | 1.78 µM |
| RIWIRYW | 2.42 µM | 4.87 µM |
| IWIRYWWR | 2.44 µM | 2.01 µM |
| ILRYWH | 2.49 µM | – |
| RWWIRIRYW | 2.54 µM | 2.76 µM |
| WRAWIRYW | 2.59 µM | – |
| WIRIRYW | 2.6 µM | 6.02 µM |
| FRIKLRW | 2.6 µM | 2.38 µM |
| WRIRIWYW | 0.85 µM | 2.43 µM |
| WRIWIRYR | 2.64 µM | 3.33 µM |
| LRIWIRYL | 2.66 µM | 1.74 µM |
| RIWLWYR | 2.73 µM | 4.27 µM and 5.47 µM |
| IWIRYWRW | 2.73 µM | 2.15 µM |
| WRIWIREW | 2.76 µM | 3.96 µM |
| IRIRWRW | 2.78 µM | 4.86 µM |
| IRWRIRW | 2.82 µM | 9.77 µM |
| RIRIRIW | 2.89 µM | – |
| WRIWARYW | 2.95 µM | – |
| WRLWIHWW | 2.96 µM | – |

| Binder | IC50 (µM), Tau40 assay (ThT) [1] | IC50 (µM), VQIINK Inhibition (ThT) [2] |
| --- | --- | --- |
| HWWIRIRYW | 3.11 µM | – |
| WRIWIRAW | 3.54 µM | – |
| WRIAIRW | 4.01 µM | – |
| IRIWLW | 4.08 µM | – |
| WRIWIRYL | 4.09 µM | – |
| RIRRWIW | 4.55 µM | – |
| WRIEIRW | 4.84 µM | – |
| WY[Orn]L[Orn]I[Orn]W [WYOLOIOW] | 5.2 µM | – |
| RIRIWYW | 5.51 µM | – |
| RIRIWKW | 5.71 µM | – |
| YKLHIRHW | 5.72 µM | – |
| FRIRIRF | 6.01 µM | – |
| W[hArg]I[hArg]I[hArg]W [W(hR)I(hR)I(hR)W] | 6.13 µM | – |
| WYRVRGRVW | 6.4 µM and 6.5 µM | – |
| LFYLRLR | 7.13 µM | – |
| WRINIRYW | 7.45 µM | – |
| WRIFIRYW | 7.67 µM | – |
| RIRLWYW | 8.01 µM | – |
| RIRIWAW | 8.38 µM | – |
| WEIRIRW | 11.1 µM | – |
| WRIEIRYW | 12 µM | – |
| RIRAWIW | 14.6 µM | – |
| WRILIRYW | 14.6 µM | – |

| Binder | IC50 (µM), Tau40 assay (ThT) [1] | IC50 (µM), VQIINK Inhibition (ThT) [2] |
| --- | --- | --- |
| IRLWLW | – | 1.27 µM |
| YRIRLRY | 1.08 µM | – |
| WRIWIRYW | – | 1.89 µM |
| RIRIWLW | – | 1.93 µM |
| IRIWVW | – | 2.43 µM |
| WRIWLWYR | – | 2.7 µM |
| W[Orn]I[Orn]I[Orn]W [WOIOIOW] | 1.17 µM | – |
| IRLIVW | – | 3.01 µM |
| RIWLRVW | – | 4.09 µM |
| RIWIYWFR | 0.55 µM | – |
| WR[NMeI]RIRW [WR(NMe)IRIRW] | 1.48 µM | – |
| LWWIRIRYW | 1.59 µM and 1.8 µM | – |
| WRIWLYWR | 1.69 µM | – |
| LRIWIRYW | 1.71 µM | – |
| WRIRLRGW | 1.74 µM and 1.91 µM | – |
| RIRLYWW | 1.74 µM | – |
| WRVWGWVRW | 1.81 µM and 1.85 µM | – |
| RIRLYIW | 2.12 µM | – |
| FRIWIRYW | 2.12 µM | – |
| WWIRIRYWH | 2.16 µM and 2.3 µM | – |
| RIWIRYWW | 2.28 µM | – |
| HWKIIWYR | 2.39 µM | – |
| RIRIWRW | 2.39 µM | – |
